Experimental data: paper PMC5201417, “Drosophila non-muscle myosin II motor activity determines the rate of tissue folding” (eLife, 2016)

Key:
[1] = molecular target: filamentous actin from rabbit skeletal muscle (rabbit) (UniProt P68135)
[2] = molecular target: Drosophila non-muscle myosin II heavy chain, HMM construct (amino acids 1-1363) (Drosophila melanogaster) (UniProt Q99323); assay: co-purification (Flag affinity chromatography, stained SDS gel); heavy chain and both light chains co-expressed in Sf9 cells, purified via Flag affinity chromatography (HMM also by size exclusion chromatography); PageBlue-stained 4-12% Bis-Tris gel
[3] = molecular target: Drosophila non-muscle myosin II heavy chain, full length (amino acids 1-1971) (Drosophila melanogaster) (UniProt Q99323); assay: as above
[4] = molecular target: T1, Drosophila non-muscle myosin II heavy chain, HMM construct (amino acids 1-1363) (Drosophila melanogaster, UniProt Q99323-2 1-1363); assay: as above; conditions: partners not purified
T1 construct: numbers count on: NP_001014553.1; the heavy chain alone, for the rows of heavy chain with each light chain; whether it carries the Halo tag is not clear; also called HMM (160 kDa); myosin heavy chain

[5] = molecular target: T2, Drosophila non-muscle myosin II heavy chain, full length (amino acids 1-1971) (Drosophila melanogaster, UniProt Q99323-2 1-1971); assay: as above; conditions: partners not purified
T2 construct: the heavy chain alone, for the rows of heavy chain with each light chain; also called full-length (228 kDa); myosin heavy chain
T2 sequence (Q99323 other isoform, or with tags, fused parts or gaps): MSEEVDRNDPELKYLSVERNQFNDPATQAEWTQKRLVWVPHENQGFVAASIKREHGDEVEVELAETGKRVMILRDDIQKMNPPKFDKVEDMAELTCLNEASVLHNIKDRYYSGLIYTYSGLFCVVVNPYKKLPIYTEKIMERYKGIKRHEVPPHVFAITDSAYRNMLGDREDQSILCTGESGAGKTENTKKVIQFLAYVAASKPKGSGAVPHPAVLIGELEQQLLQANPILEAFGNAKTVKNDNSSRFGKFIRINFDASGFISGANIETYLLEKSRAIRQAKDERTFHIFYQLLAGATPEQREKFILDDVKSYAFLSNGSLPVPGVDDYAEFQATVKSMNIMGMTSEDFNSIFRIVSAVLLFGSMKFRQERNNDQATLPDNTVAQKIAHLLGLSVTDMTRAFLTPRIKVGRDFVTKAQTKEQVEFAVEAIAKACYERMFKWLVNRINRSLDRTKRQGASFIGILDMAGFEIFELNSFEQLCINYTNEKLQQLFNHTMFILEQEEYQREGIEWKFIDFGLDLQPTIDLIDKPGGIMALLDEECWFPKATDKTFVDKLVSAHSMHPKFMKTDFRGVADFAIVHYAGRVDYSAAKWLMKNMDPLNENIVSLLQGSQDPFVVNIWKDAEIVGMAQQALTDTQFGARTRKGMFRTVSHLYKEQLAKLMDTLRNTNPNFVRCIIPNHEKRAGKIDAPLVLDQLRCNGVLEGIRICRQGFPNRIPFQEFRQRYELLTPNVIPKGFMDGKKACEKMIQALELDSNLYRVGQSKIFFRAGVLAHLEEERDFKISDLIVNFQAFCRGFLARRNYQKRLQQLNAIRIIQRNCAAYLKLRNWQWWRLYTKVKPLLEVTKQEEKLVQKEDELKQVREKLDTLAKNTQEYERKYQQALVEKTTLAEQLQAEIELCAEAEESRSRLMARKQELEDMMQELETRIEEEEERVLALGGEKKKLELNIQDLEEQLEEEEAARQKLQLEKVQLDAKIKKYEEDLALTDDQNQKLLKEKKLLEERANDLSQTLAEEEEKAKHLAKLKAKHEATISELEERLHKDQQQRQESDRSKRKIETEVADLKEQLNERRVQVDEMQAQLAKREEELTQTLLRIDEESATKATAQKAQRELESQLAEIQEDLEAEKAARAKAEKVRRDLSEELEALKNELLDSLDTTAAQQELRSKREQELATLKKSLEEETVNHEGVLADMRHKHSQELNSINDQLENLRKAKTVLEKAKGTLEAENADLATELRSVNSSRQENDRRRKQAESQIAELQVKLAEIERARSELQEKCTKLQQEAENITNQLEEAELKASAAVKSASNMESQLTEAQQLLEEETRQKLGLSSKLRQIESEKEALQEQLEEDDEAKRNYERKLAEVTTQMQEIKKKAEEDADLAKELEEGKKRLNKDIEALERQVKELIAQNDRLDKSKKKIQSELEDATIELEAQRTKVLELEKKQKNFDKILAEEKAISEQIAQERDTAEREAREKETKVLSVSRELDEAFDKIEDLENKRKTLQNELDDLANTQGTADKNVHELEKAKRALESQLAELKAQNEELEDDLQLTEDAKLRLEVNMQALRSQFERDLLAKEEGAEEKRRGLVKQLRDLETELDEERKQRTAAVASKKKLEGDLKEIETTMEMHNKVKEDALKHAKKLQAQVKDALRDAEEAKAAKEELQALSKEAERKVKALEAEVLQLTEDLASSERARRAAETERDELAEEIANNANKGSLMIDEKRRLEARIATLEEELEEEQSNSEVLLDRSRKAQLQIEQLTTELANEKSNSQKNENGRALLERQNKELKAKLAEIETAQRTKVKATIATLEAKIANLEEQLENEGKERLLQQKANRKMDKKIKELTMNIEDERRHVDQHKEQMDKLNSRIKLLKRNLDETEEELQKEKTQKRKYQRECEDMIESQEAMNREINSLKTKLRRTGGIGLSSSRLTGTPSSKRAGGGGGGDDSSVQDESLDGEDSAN

Drosophila non-muscle myosin II heavy chain, HMM construct (amino acids 1-1363) (Drosophila melanogaster), sequence (Q99323 other isoform, or with tags, fused parts or gaps): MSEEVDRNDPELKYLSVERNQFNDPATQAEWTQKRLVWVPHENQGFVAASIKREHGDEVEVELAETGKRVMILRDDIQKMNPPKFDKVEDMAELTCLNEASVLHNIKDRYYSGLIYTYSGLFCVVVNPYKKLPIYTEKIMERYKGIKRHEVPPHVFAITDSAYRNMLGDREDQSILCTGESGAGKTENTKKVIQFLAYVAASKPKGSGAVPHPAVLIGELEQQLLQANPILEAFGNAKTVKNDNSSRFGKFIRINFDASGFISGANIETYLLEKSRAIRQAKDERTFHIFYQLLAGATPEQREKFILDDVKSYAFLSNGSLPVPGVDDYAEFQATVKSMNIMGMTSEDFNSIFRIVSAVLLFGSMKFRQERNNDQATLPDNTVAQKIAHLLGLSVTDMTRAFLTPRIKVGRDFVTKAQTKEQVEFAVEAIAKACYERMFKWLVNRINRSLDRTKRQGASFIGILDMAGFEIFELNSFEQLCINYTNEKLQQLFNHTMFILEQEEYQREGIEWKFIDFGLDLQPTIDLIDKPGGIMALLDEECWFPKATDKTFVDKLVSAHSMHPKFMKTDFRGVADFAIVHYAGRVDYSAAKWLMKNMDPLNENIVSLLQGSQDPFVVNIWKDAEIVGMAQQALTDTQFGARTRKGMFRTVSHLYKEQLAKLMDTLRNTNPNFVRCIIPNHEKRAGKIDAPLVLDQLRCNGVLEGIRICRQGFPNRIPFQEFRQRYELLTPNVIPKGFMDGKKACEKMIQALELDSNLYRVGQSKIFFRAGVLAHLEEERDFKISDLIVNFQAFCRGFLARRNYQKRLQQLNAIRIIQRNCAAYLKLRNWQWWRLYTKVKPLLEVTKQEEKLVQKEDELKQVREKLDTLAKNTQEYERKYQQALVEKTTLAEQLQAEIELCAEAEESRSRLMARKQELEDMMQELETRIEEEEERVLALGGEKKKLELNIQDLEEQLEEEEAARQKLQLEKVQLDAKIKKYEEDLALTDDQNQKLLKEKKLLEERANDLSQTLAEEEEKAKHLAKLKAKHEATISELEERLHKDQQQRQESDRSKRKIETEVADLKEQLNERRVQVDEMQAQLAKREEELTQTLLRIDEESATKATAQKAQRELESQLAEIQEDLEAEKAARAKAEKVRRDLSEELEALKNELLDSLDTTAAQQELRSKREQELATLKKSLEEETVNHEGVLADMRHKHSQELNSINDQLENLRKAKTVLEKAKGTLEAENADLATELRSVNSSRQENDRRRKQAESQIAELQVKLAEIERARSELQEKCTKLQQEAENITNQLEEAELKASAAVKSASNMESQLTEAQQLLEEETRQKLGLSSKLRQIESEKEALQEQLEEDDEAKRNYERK

Molecule “Drosophila non-muscle myosin II heavy meromyosin (HMM) with wild-type RLC, phosphorylated by MLCK (from UniProt Q99323-2 1-1363; P40423 1-174; P54357 1-147) (complex)” has a Kapp (apparent actin affinity) of the actin-activated steady-state ATPase, NADH-linked assay at 25°C, 0-100 µM filamentous actin, Michaelis-Menten fit [1] of 38.9 µM.

For “Drosophila myosin regulatory light chain (Sqh), mutant RLC-AS (natural protein)”, the stoichiometry N [2] was 1 and the stoichiometry N [3] was 1.

“Drosophila myosin regulatory light chain (Sqh), mutant RLC-AE (natural protein)” gave a stoichiometry N [2] of 1 and a stoichiometry N [3] of 1.

With “Drosophila myosin regulatory light chain (Sqh), mutant RLC-TA (natural protein)” the stoichiometry N [2] was 1 and the stoichiometry N [3] was 1.

For “Drosophila myosin regulatory light chain (Sqh), mutant RLC-EE (natural protein)”, the stoichiometry N [2] was 1 and the stoichiometry N [3] was 1.

“Drosophila myosin regulatory light chain (Sqh), mutant RLC-AA (natural protein)” showed a stoichiometry N [2] of 1 and a stoichiometry N [3] of 1.

B1: Drosophila myosin essential light chain (Mlc-c) (natural protein, Drosophila melanogaster, UniProt P54357 1-147, looked up)
light: MAAYTEDQLAEFQEAFNLFDNRGDGKIQLSQVGECLRALGQNPTESDVKKCTHQLKPDERISFEVFLPIYQAISKARSGDTADDFIEGLRHFDKDASGYISSAELRHLLTTLGEKLTDEEVEQLLANMEDQQGNINYEEFVRMVMSG
notes: Drosophila myosin essential light chain Mlc-c; 16 kDa on the gel; also called ELC; source: Sf9 insect cells (baculovirus, polycistronic vector with Sqh), co-expressed and co-purified with the heavy chain
B1 was tested, and the “stoichiometry N” value [4] was 1 and the “stoichiometry N” value [5] was 1.

B2: Drosophila myosin regulatory light chain (Sqh), wild type (natural protein, Drosophila melanogaster, UniProt P40423 1-174, looked up)
light: MSSRKTAGRRATTKKRAQRATSNVFAMFDQAQIAEFKEAFNMIDQNRDGFVEKEDLHDMLASLGKNPTDDYLDGMMNEAPGPINFTMFLTLFGERLQGTDPEDVIKNAFGCFDEENMGVLPEDRLRELLTTMGDRFTDEDVDEMYREAPIKNGLFDYLEFTRILKHGAKDKDEQ
notes: Drosophila myosin regulatory light chain Sqh (spaghetti squash); 19 kDa on the gel; also called RLC; RLC-TS; source: Sf9 insect cells (baculovirus, polycistronic vector with Mlc-c), co-expressed and co-purified with the heavy chain
With B2 the “stoichiometry N” value [4] was 1 and the “stoichiometry N” value [5] was 1.
